B1: TPR t1 (parent)
chain: GACCAAUCUGCCCUCAGAGCUCGAGAACAUCUUCGGAUGCAGAGGAGGCAGGCUUCGGUGGCGCGAUAGCGCCAACGUCCUCAACCUCCAAUGCAUCCCACCACAUGAUGAUGCCUGAAGAGCCUUGGUUUUUUG

Variants of: B1
Test: polymerase ribozyme fitness, log enrichment relative to wild type (log ratio); higher = more active; in vitro selection for triplet polymerase activity
How it was run: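 Mutant libraries of both subunits of a heterodimeric triplet polymerase ribozyme were PCR-built, transcribed, and selected once in triplicate, with frozen incubation at −7 °C and capture of gel-excised extended constructs on streptavidin beads before RT-PCR. Illumina sequencing of input and output libraries was filtered to genotypes with ≥10 input reads and ≥1 read per output. Fitness is the logarithm of genotype enrichment over wild-type enrichment, using inverse-variance-weighted replicate averages. The logarithm is base 2.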

Row | Variant | polymerase ribozyme fitness (log ratio)
1 | C8G G17U A26U C72G | -4.46
2 | C8G G17C A29U U87G G120A | -2.2
3 | C8G G69A C88A | -2.65
4 | C8G C13U G47C A74G | -0.735
5 | C8G C34U C53G A90U G120A | -5.88
6 | C8G G93A | -0.604
7 | C8G A50G | 0.932
8 | C8G U21A C76G C99A U112A | -5.05
9 | C8G G47A | -0.0438
10 | C8G A29U U132C | -1.95
11 | C8G G57A A84U G120U | 0.672
12 | C8U A46G C56G | -0.511
13 | C8G C20U U81G | -4.46
14 | C8U A26G U54C G60U | -2.1
15 | C8G G77C | 0.232
16 | C8G C22G C76A G77A | -5.05
17 | C8G C89U U106A | 0.442
18 | C8G G42A C53A G63A U81C C82A C86U C99G A118U | -7.86
19 | C8G U87A U112G G113U C123U G127A | -3.6
20 | C8G G17U G48A G57U G69U A105U | -2.21
21 | C8U A16U A66U C72G G77U C123U | -1.74

Row | Variant | polymerase ribozyme fitness (log ratio)
22 | C8G G93A A111C | 0.513
23 | C8G C11U C40U G61C A90G C97U U129G | -3.08
24 | C8G C12G G17C C82A C102U C104A | -5.44
25 | C8G U96C | 0.587
26 | C8G G39A C79A C82A C85A C114U | -4.81
27 | C8G C40U G60C | -0.367
28 | C8G G10A A18G G65C U116G G117A | -5.46
29 | C8G G61A U109A U132C | -4.05
30 | C8G C22G C53U C70U A84C | -3.45
31 | C8G G61C C89U C104U | -2.02
32 | C8G A66G C85A C114U | -3.3
33 | C8G G10C C11U C20A U33C C56G G63U C64G C72G C114G G127U | -6.79
34 | C8G G36U C49G C62G U129C | -3.6
35 | C8G G10U G69U U81C | -0.318
36 | C8G G19U C94U | -2.66
37 | C8U A27C C72U C80A | -6.42
38 | C8G C13G G36A U78A A111C | 0.328
39 | C8G C12U C15U G120U | 2.64
40 | C8G A74U U78G | 0.422
41 | C8G U55G C88A A121U G128U | 0.0321
42 | C8G C15U C62U G135U | -1.08

Row | Variant | polymerase ribozyme fitness (log ratio)
43 | C8G C34A U78C C97A G107A | -3.66
44 | C8G C56U C104A U129G | -1.17
45 | C8G G39A A43C C64U | -2.65
46 | C8U A18C A41U A50G C101U | -2.01
47 | C8U A37G G61U U130A | -0.107
48 | C8U A37U C70A U112C | 0.338
49 | C8G C15A G63C | -0.139
50 | C8G G42A G63A | -2.89
51 | C8G C53A G117A | 0.922
52 | C8G C31G C82A C124U | -6.38
53 | C8G G60U U81A C123A | 1.75
54 | C8U A18C G48C A95G | -2.07
55 | C8G A37U A90U G93C U132A | -2.23
56 | C8G G47C G69U U92A G93U C123A U126A | -3.8
57 | C8U A16U G47A C101A C124U | -1.94
58 | C8U A29U G47C C72U C102A | -5.13
59 | C8G G10A C15G G77C G110A | -3.26
60 | C8G C28G C64U U116G A121G | -2.9
61 | C8G C13A U67C | -4.98
62 | C8G C12A G17C A29G A46U G47A C72U | -6.22
63 | C8G G36A | -0.023

Row | Variant | polymerase ribozyme fitness (log ratio)
64 | C8G U32A | -3.34
65 | C8G C82A | 0.946
66 | C8G C22G U125G U131G | -6
67 | C8G G71U C82U C86U | -1.12
68 | C8G U21A G57C A108G U133C | -5.29
69 | C8U A83U C85U C123G C124G | 2.01
70 | C8U A46G U54C C56A | -0.306
71 | C8G G61A U78C U92A | -3.12
72 | C8G C72U A90C A91U A95G | -1.1
73 | C8G G10C G19U A37U C53G | -3.79
74 | C8G C114A G135U | -0.31
75 | C8G G128U U130C | 0.904
76 | C8G G10C C73G U81A C88U | -1.77
77 | C8G C80U | 0.0565
78 | C8G C15U C62U C89G G93A C101U G113C C114U G127C | -4.12
79 | C8G G61U | 0.967
80 | C8G A41G U78G G122U | -0.0287
81 | C8U A50U G117C | -3.99
82 | C8U A24G G113U C114U G122A | -1.73
83 | C8U A41C G58U C94G C104U U106A U112C | -3.18

Source: the RNAGym collection of RNA variant scans (doi:10.1073/pnas.2313332121)
